Patent publication US20200131263A1

Target: cynomolgus GITR (cyno-GITR) (cynomolgus)
Assay: ELISA, cyno GITR coated at 1 ug/ml

- EC50: 0.269 nM
Substance: reference antibody BMAB (Merck's MK-4166 antibody)
